Assays:
Experiment in all cases: cell_activity
[1] = tested on: ZFN 50773 (synthetic); conditions: pair 50773/49812, K562, AAV6 donor
[2] = tested on: ZFN 49812 (synthetic); conditions: pair 50773/49812, K562, AAV6 donor
[3] = tested on: ZFN 44271 (synthetic); conditions: pair 44298:44271, K562, day 3 (36.6% day 10; GFP 0.2%)
[4] = tested on: ZFN 44298 (synthetic); conditions: pair 44298:44271, K562, day 3 (36.6% day 10; GFP 0.2%)

ATGATAAAGCTGCAAACCCAAAGAAACT (double strand) [RAG1 site 4 (50773)]
activity (% targeted integration) [1]: 5

CTTTTATGACCCATTTGGAAGAAATAAA (double strand) [RAG1 site 4 (55002/55005/49812)]
activity (% targeted integration) [2]: 5

GCCAGTGGCAGGCACCAGATCTCTGTAC (double strand) [IL2RG 44271 site]
activity [3]: 42.8 % indels

TTACAATCATGTGGGCAGAATTGAAAAG (double strand) [IL2RG 44298 site]
activity [4]: 42.8 % indels

Source: US20160030477
